# Tests used:
# [1] = target: SARS-CoV-2 spike S1 subunit (SARS-CoV-2, UniProt P0DTC2 16-685)
# [2] = target: SARS-CoV-2 spike RBD-Fc fusion (SARS-CoV-2, UniProt P0DTC2 319-541); assay: ELISA on aptamer-coated gold slide
binder,measurement,setting,value
"CoV-2-RBD-4C aptamer (Aptamer-4C) (structured_DNA, 5'-thiol, immobilized on gold) DNA: ATCCAGAGTGACGCAGCATTTCATCGGGTCCAAAAGGGGCTGCTCGGGATTGCGGATATGGACACGT",binding result,[1],binds
same,binding result,[2],binds

# Reference: article PMC8409056
